Assay results as given in patent publication US20260001928A1 (CORTERIA PHARMACEUTICALS, priority 2022, published 2026).
*1 amine or outer side, *2 acyl side, *3 side chain or, on linkers, in order; H or OH if unused. Where no end group is shown, it is not given here. Side-chain parts run from the residue outwards. [ ]: non-standard residue; d: D form. The star is where a group is joined. C18 diacid = O=C(O)CCCCCCCCCCCCCCCCC(=O)*; γGlu = O=C(O)[C@H](CCC(=O)[*:2])N[*:1]; NMeI = CC[C@H](C)[C@H](NC)C(=O)O; Abu = CC[C@H](N)C(=O)O; Dap = NC[C@H](N)C(=O)O; AEEA = NCCOCCOCC(=O)O

T1: CRF1R receptor (UniProt P34998 24-415, limits assumed)
T1 sequence (looked up): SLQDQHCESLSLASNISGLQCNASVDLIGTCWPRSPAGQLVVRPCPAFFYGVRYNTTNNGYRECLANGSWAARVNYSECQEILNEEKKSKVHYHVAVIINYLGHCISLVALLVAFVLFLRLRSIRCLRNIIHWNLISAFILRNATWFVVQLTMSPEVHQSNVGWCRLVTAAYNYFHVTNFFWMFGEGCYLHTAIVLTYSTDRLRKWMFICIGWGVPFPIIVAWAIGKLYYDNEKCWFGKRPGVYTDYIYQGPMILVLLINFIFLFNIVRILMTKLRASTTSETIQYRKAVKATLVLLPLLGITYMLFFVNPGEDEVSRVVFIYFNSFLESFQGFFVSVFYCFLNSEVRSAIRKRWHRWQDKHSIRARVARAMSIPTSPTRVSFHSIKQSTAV


Experiments:
CRF1R receptor = target: T1, CRF1R receptor; test: cell-based or functional assay
[1] = target: human corticotropin-releasing factor 2a (CRF2a receptor) (human), Q13324; test: cell-based or functional assay
Chain of human corticotropin-releasing factor 2a (CRF2a receptor) (human), Q13324 (Q13324 20-411): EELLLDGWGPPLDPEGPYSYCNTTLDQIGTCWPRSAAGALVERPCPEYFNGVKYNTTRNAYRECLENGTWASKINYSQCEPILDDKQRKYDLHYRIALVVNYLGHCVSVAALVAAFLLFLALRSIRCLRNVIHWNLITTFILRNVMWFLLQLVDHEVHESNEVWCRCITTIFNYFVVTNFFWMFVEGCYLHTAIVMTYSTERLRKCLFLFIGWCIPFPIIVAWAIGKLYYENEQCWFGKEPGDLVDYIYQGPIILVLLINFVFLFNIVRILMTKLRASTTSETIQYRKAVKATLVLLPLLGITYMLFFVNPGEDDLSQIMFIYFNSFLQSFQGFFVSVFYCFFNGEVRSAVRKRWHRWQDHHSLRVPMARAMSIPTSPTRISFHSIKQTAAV

Emax (% I) (CRF1R receptor) [%]	EC50 [nM] (cAMP) [1]	Binder
10	0.17	Ac-IVLSLD[dV]PIKLK([γGlu-C18 diacid])KILLEQEKQKKQREQAETN[Dap]QILAQV-NH2 (SMILES CC[C@H](C)[C@H](NC(C)=O)C(=O)N[C@H](C(=O)N[C@@H](CC(C)C)C(=O)N[C@@H](CO)C(=O)N[C@@H](CC(C)C)C(=O)N[C@@H](CC(=O)O)C(=O)N[C@@H](C(=O)N1CCC[C@H]1C(=O)N[C@H](C(=O)N[C@@H](CCCCN)C(=O)N[C@@H](CC(C)C)C(=O)N[C@@H](CCCCNC(=O)CC[C@H](NC(=O)CCCCCCCCCCCCCCCCC(=O)O)C(=O)O)C(=O)N[C@@H](CCCCN)C(=O)N[C@H](C(=O)N[C@@H](CC(C)C)C(=O)N[C@@H](CC(C)C)C(=O)N[C@@H](CCC(=O)O)C(=O)N[C@@H](CCC(N)=O)C(=O)N[C@@H](CCC(=O)O)C(=O)N[C@@H](CCCCN)C(=O)N[C@@H](CCC(N)=O)C(=O)N[C@@H](CCCCN)C(=O)N[C@@H](CCCCN)C(=O)N[C@@H](CCC(N)=O)C(=O)N[C@@H](CCCNC(=N)N)C(=O)N[C@@H](CCC(=O)O)C(=O)N[C@@H](CCC(N)=O)C(=O)N[C@@H](C)C(=O)N[C@@H](CCC(=O)O)C(=O)N[C@H](C(=O)N[C@@H](CC(N)=O)C(=O)N[C@@H](CN)C(=O)N[C@@H](CCC(N)=O)C(=O)N[C@H](C(=O)N[C@@H](CC(C)C)C(=O)N[C@@H](C)C(=O)N[C@@H](CCC(N)=O)C(=O)N[C@H](C(N)=O)C(C)C)[C@@H](C)CC)[C@@H](C)O)[C@@H](C)CC)[C@@H](C)CC)C(C)C)C(C)C) [SEQ ID NO 128]
4	0.08	Ac-IVLSLD[dV]PIKLK([γGlu-C18 diacid])KILLEQEKQKKQREQAETNEQILAQV-NH2 (SMILES CC[C@H](C)[C@H](NC(C)=O)C(=O)N[C@H](C(=O)N[C@@H](CC(C)C)C(=O)N[C@@H](CO)C(=O)N[C@@H](CC(C)C)C(=O)N[C@@H](CC(=O)O)C(=O)N[C@@H](C(=O)N1CCC[C@H]1C(=O)N[C@H](C(=O)N[C@@H](CCCCN)C(=O)N[C@@H](CC(C)C)C(=O)N[C@@H](CCCCNC(=O)CC[C@H](NC(=O)CCCCCCCCCCCCCCCCC(=O)O)C(=O)O)C(=O)N[C@@H](CCCCN)C(=O)N[C@H](C(=O)N[C@@H](CC(C)C)C(=O)N[C@@H](CC(C)C)C(=O)N[C@@H](CCC(=O)O)C(=O)N[C@@H](CCC(N)=O)C(=O)N[C@@H](CCC(=O)O)C(=O)N[C@@H](CCCCN)C(=O)N[C@@H](CCC(N)=O)C(=O)N[C@@H](CCCCN)C(=O)N[C@@H](CCCCN)C(=O)N[C@@H](CCC(N)=O)C(=O)N[C@@H](CCCNC(=N)N)C(=O)N[C@@H](CCC(=O)O)C(=O)N[C@@H](CCC(N)=O)C(=O)N[C@@H](C)C(=O)N[C@@H](CCC(=O)O)C(=O)N[C@H](C(=O)N[C@@H](CC(N)=O)C(=O)N[C@@H](CCC(=O)O)C(=O)N[C@@H](CCC(N)=O)C(=O)N[C@H](C(=O)N[C@@H](CC(C)C)C(=O)N[C@@H](C)C(=O)N[C@@H](CCC(N)=O)C(=O)N[C@H](C(N)=O)C(C)C)[C@@H](C)CC)[C@@H](C)O)[C@@H](C)CC)[C@@H](C)CC)C(C)C)C(C)C) [SEQ ID NO 130]

The next lines start with the binder.

Binder	Emax (% I) (CRF1R receptor) [%]	EC50 [nM] (cAMP) [1]
[NMeI]VLSLD[dV]PIKLK([AEEA-AEEA-γGlu-C18 diacid])KILLEQEKQKKQREQAETN[Abu]QILAQV-NH2 (N-terminus assumed; SMILES CC[C@H](NC(=O)[C@H](CC(N)=O)NC(=O)[C@@H](NC(=O)[C@H](CCC(=O)O)NC(=O)[C@H](C)NC(=O)[C@H](CCC(N)=O)NC(=O)[C@H](CCC(=O)O)NC(=O)[C@H](CCCNC(=N)N)NC(=O)[C@H](CCC(N)=O)NC(=O)[C@H](CCCCN)NC(=O)[C@H](CCCCN)NC(=O)[C@H](CCC(N)=O)NC(=O)[C@H](CCCCN)NC(=O)[C@H](CCC(=O)O)NC(=O)[C@H](CCC(N)=O)NC(=O)[C@H](CCC(=O)O)NC(=O)[C@H](CC(C)C)NC(=O)[C@H](CC(C)C)NC(=O)[C@@H](NC(=O)[C@H](CCCCN)NC(=O)[C@H](CCCCNC(=O)COCCOCCNC(=O)COCCOCCNC(=O)CC[C@H](NC(=O)CCCCCCCCCCCCCCCCC(=O)O)C(=O)O)NC(=O)[C@H](CC(C)C)NC(=O)[C@H](CCCCN)NC(=O)[C@@H](NC(=O)[C@@H]1CCCN1C(=O)[C@H](NC(=O)[C@H](CC(=O)O)NC(=O)[C@H](CC(C)C)NC(=O)[C@H](CO)NC(=O)[C@H](CC(C)C)NC(=O)[C@@H](NC(=O)[C@@H](NC)[C@@H](C)CC)C(C)C)C(C)C)[C@@H](C)CC)[C@@H](C)CC)[C@@H](C)O)C(=O)N[C@@H](CCC(N)=O)C(=O)N[C@H](C(=O)N[C@@H](CC(C)C)C(=O)N[C@@H](C)C(=O)N[C@@H](CCC(N)=O)C(=O)N[C@H](C(N)=O)C(C)C)[C@@H](C)CC) [SEQ ID NO 114]	6	0.18
[NMeI]VLSLD[dV]PIKLK([AEEA-AEEA-γGlu-C18 diacid])KILLEQEKQKKQREQAETN[Dap]QILAQV-NH2 (N-terminus assumed; SMILES CC[C@H](C)[C@H](NC)C(=O)N[C@H](C(=O)N[C@@H](CC(C)C)C(=O)N[C@@H](CO)C(=O)N[C@@H](CC(C)C)C(=O)N[C@@H](CC(=O)O)C(=O)N[C@@H](C(=O)N1CCC[C@H]1C(=O)N[C@H](C(=O)N[C@@H](CCCCN)C(=O)N[C@@H](CC(C)C)C(=O)N[C@@H](CCCCNC(=O)COCCOCCNC(=O)COCCOCCNC(=O)CC[C@H](NC(=O)CCCCCCCCCCCCCCCCC(=O)O)C(=O)O)C(=O)N[C@@H](CCCCN)C(=O)N[C@H](C(=O)N[C@@H](CC(C)C)C(=O)N[C@@H](CC(C)C)C(=O)N[C@@H](CCC(=O)O)C(=O)N[C@@H](CCC(N)=O)C(=O)N[C@@H](CCC(=O)O)C(=O)N[C@@H](CCCCN)C(=O)N[C@@H](CCC(N)=O)C(=O)N[C@@H](CCCCN)C(=O)N[C@@H](CCCCN)C(=O)N[C@@H](CCC(N)=O)C(=O)N[C@@H](CCCNC(=N)N)C(=O)N[C@@H](CCC(=O)O)C(=O)N[C@@H](CCC(N)=O)C(=O)N[C@@H](C)C(=O)N[C@@H](CCC(=O)O)C(=O)N[C@H](C(=O)N[C@@H](CC(N)=O)C(=O)N[C@@H](CN)C(=O)N[C@@H](CCC(N)=O)C(=O)N[C@H](C(=O)N[C@@H](CC(C)C)C(=O)N[C@@H](C)C(=O)N[C@@H](CCC(N)=O)C(=O)N[C@H](C(N)=O)C(C)C)[C@@H](C)CC)[C@@H](C)O)[C@@H](C)CC)[C@@H](C)CC)C(C)C)C(C)C) [SEQ ID NO 115]	4	0.76
